Experimental data taken from the supplement of paper PMC10724198.
± gives the standard deviation of the averaged measurements.

System: Saccharomyces cerevisiae
Assay: protein stability index of tFT-peptide fusion (C-terminal peptide) (PSI (0-1 scale)); higher = more stable (slower turnover)
Conditions: temperature: 30 C
Method: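 MPS profiling in S. cerevisiae of the yeast C-terminome library: the last 12 aa of each annotated ORF are fused to the C-terminus of a sfGFP-mCherry timer, after a GGGS linker. Cells are FACS-sorted into 8 mCherry/sfGFP bins and deep-sequenced. PSI runs from 0 (unstable) to 1 (stable); wild type and das1Δ backgrounds, two technical replicates each.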

[1] = genetic background: das1 deletion

Sequence	protein stability index [1]	protein stability index (genetic background: wild type)
HNLHSYEKRLHN [IMD2 C-terminal 12 aa]	0.7234 ± 0.0046	0.742 ± 0.066
HQFCEQKYVETI [RRT16 C-terminal 12 aa]	0.7109 ± 0.0024	0.664 ± 0.0071
HSRASVQSHPQH [DAL80 C-terminal 12 aa]	0.7271 ± 0.0023	0.699 ± 0.03
HSSYDRPMIIKN [UBP15 C-terminal 12 aa]	0.685 ± 0.056	0.662 ± 0.025
IADHLVGRKRVD [PFK2 C-terminal 12 aa]	0.701 ± 0.014	0.712 ± 0.059
IAEENSSTESLF [CIS1 C-terminal 12 aa]	0.709 ± 0.0088	0.726 ± 0.065
ICCQVAKSLLKI [YGL074C C-terminal 12 aa]	0.656 ± 0.016	0.688 ± 0.027
IDDKSDQEESLQ [MAF1 C-terminal 12 aa]	0.706 ± 0.0079	0.664 ± 0.067
IDLIAFLRNGPL [GPR1 C-terminal 12 aa]	0.737 ± 0.039	0.749 ± 0.088
IDLLAENTKTPI [COA1 C-terminal 12 aa]	0.6964 ± 0.0031	0.697 ± 0.018
IEQEAKQRERNQ [COA6 C-terminal 12 aa]	0.6993 ± 0.0011	0.701 ± 0.02
IFCFDNYRSCYC [YKL031W C-terminal 12 aa]	0.7071 ± 0.0034	0.678 ± 0.038
IFKSLIAKKVQS [BPL1 C-terminal 12 aa]	0.69 ± 0.001	0.433 ± 0.033
IFLMKKAYDLQI [EFM1 C-terminal 12 aa]	0.675 ± 0.011	0.657 ± 0.02
IGIGTHDLHFGS [YHR052W-A C-terminal 12 aa]	0.728 ± 0.033	0.7123 ± 0.0016
IGKQKCFIIEMR [MSY1 C-terminal 12 aa]	0.6688 ± 0.00094	0.679 ± 0.0098
IHFGETSNYSFD [SMC5 C-terminal 12 aa]	0.722 ± 0.02	0.698 ± 0.017
IHNDIPSHRKLK [FIR1 C-terminal 12 aa]	0.699 ± 0.022	0.6589 ± 0.0014
IHRVIKNATPVA [PEX28 C-terminal 12 aa]	0.624 ± 0.027	0.649 ± 0.026
IHSGYTNISYTI [MCM16 C-terminal 12 aa]	0.709 ± 0.0077	0.7012 ± 0.0067
IHYKMNENSTNQ [SYO1 C-terminal 12 aa]	0.689 ± 0.0075	0.68 ± 0.04

Sequence	protein stability index [1]	protein stability index (genetic background: wild type)
IIEEKVRNYLNK [RIB5 C-terminal 12 aa]	0.696 ± 0.061	0.685 ± 0.01
IKDAIKNGTGLL [MET31 C-terminal 12 aa]	0.677 ± 0.0075	0.678 ± 0.014
IKKEVSRRLNGR [CUR1 C-terminal 12 aa]	0.647 ± 0.016	0.692 ± 0.03
IKNSSLAVLHST [YKL162C C-terminal 12 aa]	0.705 ± 0.021	0.205 ± 0.019
IKTIVEAMDVLS [PCC1 C-terminal 12 aa]	0.67028 ± 4.3e-05	0.656 ± 0.025
ILELPHVVSDLF [SDT1 C-terminal 12 aa]	0.713 ± 0.0089	0.7147 ± 0.0022
IMALIAESGDDF [ERV14 C-terminal 12 aa]	0.673 ± 0.021	0.7007 ± 0.0027
INDNNENASNSV [GLD1 C-terminal 12 aa]	0.6943 ± 0.0069	0.676 ± 0.024
INRRQTPLQSNA [CDC39 C-terminal 12 aa]	0.7 ± 0.011	0.666 ± 0.011
IQINKGDNIFKN [YTM1 C-terminal 12 aa]	0.688 ± 0.026	0.732 ± 0.025
IRIVITINKVTL [IRC9 C-terminal 12 aa]	0.348 ± 0.0076	0.36577 ± 0.00023
IRKPDDKFSSFI [YOR072W C-terminal 12 aa]	0.702 ± 0.0082	0.706 ± 0.032
IRMYLGSSLDIE [SRX1 C-terminal 12 aa]	0.69 ± 0.013	0.6815 ± 0.0061
ISICILDLASHL [YBL071C C-terminal 12 aa]	0.6703 ± 0.0038	0.669 ± 0.018
ISLWYKHNRVKG [YPR077C C-terminal 12 aa]	0.677 ± 0.017	0.5619 ± 0.0045
ISSGPPPRSPNK [IGO2 C-terminal 12 aa]	0.68 ± 0.01	0.6422 ± 0.0036
ISTAPEQMMFLP [MSG5 C-terminal 12 aa]	0.7169 ± 0.0058	0.7155 ± 0.0068
ISVSKKTLKSNW [HOP1 C-terminal 12 aa]	0.698 ± 0.011	0.686 ± 0.022
IVKIIRFNHASV [YHL048C-A C-terminal 12 aa]	0.685 ± 0.016	0.658 ± 0.034
IVNDVWLPFQKW [DSD1 C-terminal 12 aa]	0.729 ± 0.03	0.701 ± 0.02
